Source: article PMC2864300, “Regulation of NOXO1 Activity through Reversible Interactions with p22^phox and NOXA1” (PLoS ONE, 2010)
pKd: −log10 of the molar value. One block for each substance: values may come before it.

Legend:
[1] = molecular target: p67phox C-terminal SH3 (Homo sapiens) (UniProt P19878); conditions: cited from earlier work
[2] = molecular target: mouse NOXO1 tandem SH3 domains (SH3AB) (mouse); test: ITC; MicroCal VP-ITC, 18°C; 150 mM NaCl, 1 mM DTT, 50 mM HEPES pH 7.4; typically 20–40 µM protein in the cell, 200–300 µM ligand injected; single-site binding model; averaged over three to five experiments
[3] = molecular target: p22phox cytoplasmic domain (Homo sapiens) (UniProt P13498); conditions: cited from earlier work
p22phox cytoplasmic domain (Homo sapiens), sequence (P13498 132-195): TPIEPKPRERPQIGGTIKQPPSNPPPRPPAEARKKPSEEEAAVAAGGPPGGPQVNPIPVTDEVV

[4] = molecular target: human NOXO1 SH3AB–E (tandem SH3 domains plus the C-terminal portion of NOXO1) (human); test: ITC; MicroCal VP-ITC, 18°C; 150 mM NaCl, 1 mM DTT, 50 mM HEPES pH 7.4; typically 20–40 µM protein in the cell, 200–300 µM ligand injected; single-site binding model; averaged over three to five experiments
[5] = molecular target: human NOXO1 SH3AB–E triple mutant (proline residues 323, 326 and 329 to alanine) (human); test: as above
[6] = molecular target: human NOXO1 tandem SH3 domains (SH3AB) (human); test: as above

p67phox C-terminal SH3 (Homo sapiens), sequence (P19878 457-516): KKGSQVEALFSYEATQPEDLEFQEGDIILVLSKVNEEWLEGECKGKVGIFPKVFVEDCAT
p47phox C-terminal proline-rich region, sequence (P14598 359-390): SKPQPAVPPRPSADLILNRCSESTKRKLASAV
p47phox tandem SH3, sequence (P14598 156-285): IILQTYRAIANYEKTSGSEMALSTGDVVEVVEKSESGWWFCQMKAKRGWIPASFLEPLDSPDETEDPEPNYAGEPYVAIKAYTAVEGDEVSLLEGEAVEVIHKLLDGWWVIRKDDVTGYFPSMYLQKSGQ

Substance: p47phox C-terminal proline-rich region (from UniProt P14598)
- pKd [1]: 7.70

- pKd [2]: 7.17
- dH [2]: -12.9 kcal/mol
Substance: mouse p22^phox cytoplasmic domain (p22^phoxC) (from UniProt Q61462 127-192) (domain or fragment)

Substance: p47phox tandem SH3 (from UniProt P14598)
- pKd [3]: 6.72

- dH [4]: -3.2 kcal/mol
- pKd [5]: 6.28
- dH [5]: -8.1 kcal/mol
- pKd [6]: 6.82
- dH [6]: -16.8 kcal/mol
Substance: human p22^phox cytoplasmic domain (p22^phoxC) (domain or fragment)
